Consider 62 variants from the Human Domainome abundance scans (Beltran et al. 2025).

B1: Activity-dependent neuroprotector homeobox protein, residues 770 to 810; numbered along this chain, Q9H2P0 (parent)
chain: FLTKYFNKQPYPTRREIEKLAASLWLWKSDIASHFSNKRKK

± gives the uncertainty stated by the source.

The variants in this series derive from B1. The experiment in a line: abundance fitness (aPCA) (normalised: wild type 0, dead -1); higher = more abundant; growth selection in yeast, the domain comes from the species named. To be noted: Homo sapiens.
For FLTKYFNKQPYPTRREIEKLAASLWLWKSDIASHFDNKRKK [S36D], the abundance fitness was -0.159 ± 0.077. In the case of FLTKYFNKQPYPTRREIEKLAASLWLWKSDIASHFMNKRKK [S36M], the abundance fitness is -0.037 ± 0.088. For FLTKYFNKQPYPTRREIEKLAASLWLWKSDIASHFYNKRKK [S36Y], the abundance fitness was -0.37 ± 0.11. Take FLTKYFNKQPYPTRREIEKLAASLWLWKSDIASHFSNKRKC [K41C]: the abundance fitness is -0.261 ± 0.1. Consider FLTKYFNKQPYPTRREIEKLAASLWLWKSDIASHFSNKRKG [K41G], for which the abundance fitness is -0.135 ± 0.071. With FLTKYFNKQPYPTRREIEKLAASLWLWKSDIASHFSNKRKY [K41Y], the abundance fitness was -0.378 ± 0.079.

On to FLTKYFNKQPRPTRREIEKLAASLWLWKSDIASHFSNKRKK [Y11R], for which the abundance fitness is -0.035 ± 0.052. The value for FLTKYFNKQPIPTRREIEKLAASLWLWKSDIASHFSNKRKK [Y11I] was 0.05 ± 0.087. Then FLTKYFNKQPYPTRREIEKLAATLWLWKSDIASHFSNKRKK [S23T], with -0.075 ± 0.086; and FLTKYFNKQPYPTRREIEKLAAKLWLWKSDIASHFSNKRKK [S23K], with 0.262 ± 0.071; and FLTKYFNKQPYPTRREIEKLAAPLWLWKSDIASHFSNKRKK [S23P], with -0.12 ± 0.061. The value for FLTKYFNKQPYPTRREIEWLAASLWLWKSDIASHFSNKRKK [K19W] was -0.79 ± 0.2; that for FLTKYFNKQPYPTRREIEGLAASLWLWKSDIASHFSNKRKK [K19G] was -0.221 ± 0.06; that for FLTKYFNKQPYPTRREIEFLAASLWLWKSDIASHFSNKRKK [K19F] was -0.944 ± 0.14. For FLTKYFNKQPYPTRREIEPLAASLWLWKSDIASHFSNKRKK [K19P], the abundance fitness is -0.864 ± 0.17. FLTKYFNKQPYPTRREIEKLAASLWLWKSFIASHFSNKRKK [D30F]: the abundance fitness was -0.257 ± 0.11. Then FLTKYFNKQPYPTRREIEKLAASLWLWKSDIASHFSNKRRK [K40R], with -0.156 ± 0.06; and FLTKYFNKQPYPTRREIEKLAASLWLWKSDIASHFSNKREK [K40E], with -0.278 ± 0.14. FLTKYFNKQPYPTRREIEKLAASLWLWKSDIASHFSNKRPK [K40P]: the abundance fitness was -0.28 ± 0.07.

FLTKYFNKQPYPTRREIEKLAASLWLWKSDIASIFSNKRKK [H34I]: the abundance fitness stood at 0.068 ± 0.075. FLTKYFNKQPYPTRREIEKLAASLWLWKSDIASEFSNKRKK [H34E]: the abundance fitness is -0.275 ± 0.068. On to FLTKYFNKQPYPTRREIEKLWASLWLWKSDIASHFSNKRKK [A21W], for which the abundance fitness turned out to be 0.008 ± 0.053. Then FLTKYFNKQPYPTRREIEKLEASLWLWKSDIASHFSNKRKK [A21E], with -0.39 ± 0.12.

With FLTKYFNKQPYPTRREIEKLMASLWLWKSDIASHFSNKRKK [A21M], the abundance fitness came to 0.083 ± 0.12. With FLTKYFNKQPYPTRREIEKLAASLWLDKSDIASHFSNKRKK [W27D], the abundance fitness is -0.22 ± 0.17. Then FLTKYFNKQPYPTRREIEKLAASLWLCKSDIASHFSNKRKK [W27C], with -0.188 ± 0.061. The value for FLTKYFNKQPYPTRREIEKLAASLWLQKSDIASHFSNKRKK [W27Q] was -0.492 ± 0.13.

In the case of FLTKYFNKQPYPTRREIEKLAASLWLKKSDIASHFSNKRKK [W27K], the abundance fitness was 0.067 ± 0.06. For the variant FLTKYFNKQPYPTRREPEKLAASLWLWKSDIASHFSNKRKK [I17P], the abundance fitness was -0.296 ± 0.066.

FLTKYFNKQPYPTRREAEKLAASLWLWKSDIASHFSNKRKK [I17A]: the abundance fitness was -0.127 ± 0.059.

FLTKYFNKQPYPTRRELEKLAASLWLWKSDIASHFSNKRKK [I17L]: the abundance fitness was -0.019 ± 0.068. Consider FLTKYFNKQPYPTRREGEKLAASLWLWKSDIASHFSNKRKK [I17G], for which the abundance fitness is -0.158 ± 0.055. Then FLTKYFNKQPYPTRRECEKLAASLWLWKSDIASHFSNKRKK [I17C], with -0.024 ± 0.072; and FLTKYFNKQPYPTRREMEKLAASLWLWKSDIASHFSNKRKK [I17M], with 0.239 ± 0.087.

FLTKYFFKQPYPTRREIEKLAASLWLWKSDIASHFSNKRKK [N7F]: the abundance fitness was -1.24 ± 0.32. Then FLTKYFNKQPYPTRRAIEKLAASLWLWKSDIASHFSNKRKK [E16A], with -0.14 ± 0.06.

On to FLTKYFNKQPYPTRRHIEKLAASLWLWKSDIASHFSNKRKK [E16H], for which the abundance fitness is -0.133 ± 0.086.

Turning to FLTKYFNKQPYPTRRCIEKLAASLWLWKSDIASHFSNKRKK [E16C], the abundance fitness came to 0.082 ± 0.063. The value for FLTKYFNKQPYPTRREIEKLAASLWLWKSDIASHDSNKRKK [F35D] was -0.157 ± 0.072.

In the case of FLTKYFNKQPYPTRREIEKLAASLWLWKSDIASHISNKRKK [F35I], the abundance fitness is -0.208 ± 0.096.

FLTKYFNKQPYPTRREIEKLAASLWLWKSDIASHKSNKRKK [F35K]: the abundance fitness was -0.211 ± 0.08. In the case of FLTKYFNKQPYPTRREIEKLAASLWLWKSDIASHVSNKRKK [F35V], the abundance fitness is -0.063 ± 0.047.

Turning to FLTKYFNKQPYPTRREIEKLAASLWLWKFDIASHFSNKRKK [S29F], the abundance fitness is -0.43 ± 0.2. Turning to FLTKYFNKQPYPTRREIEKLAASLWLWKQDIASHFSNKRKK [S29Q], the abundance fitness was determined as 0.173 ± 0.056. Turning to FLTKYFNKQPYPTRREIEKLAASLWLWKSDIWSHFSNKRKK [A32W], the abundance fitness came to 0.113 ± 0.091. For FLTKYFNKQPYPTRREIEKLAASLWLWKSDIQSHFSNKRKK [A32Q], the abundance fitness was -0.169 ± 0.17. Consider FLTKYFNKQPYPTRREIEKLAASLWLWYSDIASHFSNKRKK [K28Y], for which the abundance fitness is -0.443 ± 0.16. As for FLTKYFNKQPYPTRREIEKLAASLWLWLSDIASHFSNKRKK [K28L], the abundance fitness was 0.55 ± 0.048. Then FLTKYFNKQPYPTRREIEKLAASLWLWSSDIASHFSNKRKK [K28S], with 0.028 ± 0.052; and FLTKYFNKQPYPTRREIEKLAASLWLWWSDIASHFSNKRKK [K28W], with 0.13 ± 0.067. Then FLTKYFNKQPYPTRREIEKLAASLWLWVSDIASHFSNKRKK [K28V], with 0.508 ± 0.06. For FLTKYFNKQEYPTRREIEKLAASLWLWKSDIASHFSNKRKK [P10E], the abundance fitness came to 0.158 ± 0.081.

As for FLTKYFNKQNYPTRREIEKLAASLWLWKSDIASHFSNKRKK [P10N], the abundance fitness came to 0.09 ± 0.078. The value for FLTKYFNKQPYPTRREIEKLAASLWLWKSDIASHFSHKRKK [N37H] was -0.072 ± 0.071; that for FLTKYFNKQPYPTRREIEKLAASLWLWKSDIASHFSMKRKK [N37M] was 0.013 ± 0.068.

In the case of FLTKYFNKQPYPTRREIEKLAASLWLWKSDIASHFSQKRKK [N37Q], the abundance fitness is -0.141 ± 0.06. Take FLTKYFNKQPYPTRREIEKLAASLWLWKSDIASHFSLKRKK [N37L]: the abundance fitness amounted to 0.061 ± 0.05.

With FLTKYFNKQPYPTRREIEKLAASLWLWKSDIASHFSRKRKK [N37R], the abundance fitness is -0.081 ± 0.08.

As to FLTKYFNKQPYPTRREIEKLAASLWLWKSDIASHFSNTRKK [K38T], the abundance fitness was -0.229 ± 0.056. The value for FLTKYFNKQPYPTRREIEKLAASLWLWKSDIASHFSNSRKK [K38S] was -0.183 ± 0.049. For the variant FLTKYFNKQPYPTRREIEKLAASLWLWKSDIASHFSNYRKK [K38Y], the abundance fitness is -0.433 ± 0.1.

For the variant FLTKYFNKQPYPTRREIEKLAASLWLWKSDIASHFSNGRKK [K38G], the abundance fitness is -0.09 ± 0.048.
